Source: the nanobody polyreactivity screen of Harvey et al. (2022)

Assay: yeast display, Sf9 membrane polyspecificity reagent, FACS + sequencing; frameworks hold sequencing errors
How it was run: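 Galactose induction of a Saccharomyces cerevisiae BJ5465 synthetic nanobody display library ran 36–48 hours. The cells were then stained for 1 hour at 4 °C with 10% biotinylated, detergent-solubilized Sf9 membrane reagent, pulled down on streptavidin microbeads and FACS-sorted into low and high (top ~1%) gates on expression and reagent-binding fluorescence. Labels for polyreactivity follow the gate of origin.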

Sequence | polyreactivity (PSR sort gate)
QVQLVESGGGLVQAGGSLRLSCAASGSTFTYNAMGWYRQAPGTERELVAAISDGDGRTYYADSVKGRFTISRDNAKNTVYLQMNSLKPEDTAVYYCAAVDYAADYPYRNTEVYYWGQGTQVTVSS | low polyreactivity
QVQLVESGGGLVQAGGSLRLSCAASGITSSLNAMGWYRQAPGKERELVAAISWRGGSTYYADSVKGRFTISRDNAKNTVNLRMHSLKPEDTAVYYCNVVKRSFRYDYWGQGTQVTVSS | high polyreactivity
QVQLVESRGGLVQAGGSLRLSCAASGRTFRSYVMGWYRQAPGKERELVAAITTSGGSTYYADSVKGRFTISRDTAKNTVYLQMNSLKPEETAVYYCAAEYYTYTGHYDSWYGDDYWGQGTQVTVSS | high polyreactivity
QVQLVESGGGLVQAGGSLRLSCAASGSTFFRYSMGWYRQAPGKEREFVAAISKRGGSTHYADSVKGRFTITRDNAKNTVYLQMNSLKPEDTAVYYCAASSFNSSYNYWGQGTQVTVSS | high polyreactivity
QLQLQESGSGLEQAGGSLRLSCASSGYISLGDNMGWYRQAPGKEREFVATISVGGITYYVDSVKGRFTISRDIAKNTVYLQRNSLNPEDTAVYYCADLDIYYFRYYYWGQGTQVTVSS | low polyreactivity
QVQLVESGGGLVQAGGSLRLSCAASGNTFYINAMGWYRQAPGKERELVAAINYSGDSTYADSVKGRFTISRDNAKNTVYLQMNSLKPEDSAVYYCAADWYFSVYIDYDTEYDYWGQGTQVTVSS | low polyreactivity
QVQLVESGGGSVQAGGSLRFSCADSGFTFRKNAMGWYRQAPGKERELVAAISVSGGRTYYADSVKGRFTISRDNAKNTFYLQMNSLKPEETAVYYCAARRYVLVHKDDYWGQGTQVTVSS | high polyreactivity
QVQLVESGGGLVQAGGSLRLSCAASGRILVSYARGWYRQAPGKERELVAGITSGGDSTYYADSVKGRFTISRDNAKNTVYLQMNSLKPADTAVYSCAADRYGYRGRKNVRERYNYWGQGTQVTVSS | high polyreactivity
QVQLVESGGGLVQAGGSLRLSCAASGFIFYSYAMGWYRQAPGKERELVAAISFSGSRTYYADSVKGRFTISRDNAKNTVYLQMNSLKPEDTAVYYCAAYYIASRSTRYYYWGQGTQVTVSS | high polyreactivity
QVQLVESGGGLVQAGGSLRLSCAASGFTFRQYAMGWYRQAPGKERELVAAISRSGSRTYYADSVKGRFTISRDNAKNTVYLQMNSLKPEDTAVYYCNAVFSTITGEYYWGQGTQVTVSS | high polyreactivity
QVQLVESGGALVQAGGSLRLSCAASGLIFTAYAMGWYRQAPGKERELVAAIDWRGGSTSYADSVKGRFTISRDTAKNTVYLQMNSLKPEDTAVYYCAADYYSKYVRFGYWGQGTQVTVSS | high polyreactivity
QVQLVESGGGLVQAGRSLRLSCAASGNTFWFYGMGWYRQAPGKVRELVAAITSGGSTDYADSVKGRFTISRENAKNTVSLQMNSLKPEDTAVYYCAAEPVAYYGSSYGYWGQGTQVTVSS | low polyreactivity
QVQLEESGGGLVQAGGSLRLSCAASGRTFVLNVMGWYRQAPGKERELVATISGVGSTNYADSVKGRFTISRDNAKNTVYLQMNSLKPEDTAVYYCAKDPHVGRWWDLYSPYYSWGQGTQVTVSS | low polyreactivity
QVQLVESGGGLVQAGGSLRLSCAASGRILWTYAMGWYRQAPGKERELVADISRTGSTNYADSVKGRFTISRDNAKNTVYLQMNSLKPEDTAVYYCNADYDRSRVYYSVELYDYWGQGTQVTVSS | low polyreactivity
QVQLVESGAGLVQAGGSLRLSCAASGSILKKYGMGLSRQAPGKERELVARISKSGGSTFYADSVKGRFTISRDNAKNTVYLQMNSLKPEDTAVYYCATLKYPYATSQGYDYWGQGTQVTVSS | high polyreactivity
QVQLVESGGGLVQAGGSLRLSCAASGLTFGAYAMGWYRQAPGKEREFVAAITYSGGSTNYADSVKGRFTISRDNAKNTVYLQMISLKPEDTAVYYCNAGYYSPWAFYPYDYWGQGTQVTVSS | high polyreactivity

Sequence | polyreactivity (PSR sort gate)
QVQLVESGGGLVQAGGSLRLSCAASGGTFFGYAMGWYRQAPGKERELVAAISGSGGRTYYADSVKARFTISRDNAKNTVYLQMNSLKPEDTAVYYCAADATHETYYPFYYWGQGTQVTVSS | high polyreactivity
QVQLVESGGGLVQAGGSLRLSCAASGSIFYPNAMGWYRQAPGKERELVAAITTGGSTNYADSVKGRFTISRDNAKNTVYLQMNSLKPEDTAVYYCNARHRYHSYTQPRWKYDYWGQGTQVTVSS | low polyreactivity
QVQLVESGGGLVQAGGSLRLSCAASGSIFVYNAMGWYRQAPGKEREWVAGITLIGGSTYYADSVKGRFTISRDNAKNTVYLQMNSLKPEDTAVYYCNADVAPGIFYGYDSWGQGTQVTVSS | low polyreactivity
QVQLVESGGGLVQAGGSLRLSCAASGSILRYNAMGWYSQARAKEREWVASISRGGGTNYAYSVKGRFTISRDNAKNTVYLQINSLKQEDTAVYYCAALTLRVDYDSQWYSLVDYWGQGTEVTVSS | low polyreactivity
QVQLVESGGGLVQAGGSLRLSCAASGSIFQRYTMGWYRQAPGKERELVARISGRGGSTYYADSVKGRFTISRDNAKNTVYLQMKSLKPEDTAVYYCAADTGRYLDSNYWGQGTQVTVSS | high polyreactivity
QVQLVESGGGLVQAGGILRLSCAASGFIFYFYAMGWYRQAPGKERELVAAISWSGGSTYYADSVKGRFTISRDNAKINVYLQMNSLKAEDTAVYFCAADLYHKYDYWGQGTQVTVSS | low polyreactivity
QVQLVESGGGLVQAGGSLRLSCAASGSIFPYNAMGWYRQAPGKERELVAAISISGGSTYYADSVKGRFSISRDNAKNTVYLQMNSLKPEDTAVYYCAARQSLSSAFDYWGQGTQVTVSS | low polyreactivity
HVQLVESGGGLVQAGGSLRLSCAASGRTFGAYTMGWYRQAPGKERELVAAINWSGGDTYYAYSVKGRFTISRDNAKNTVYLQMNSQKPEDTAVYYCNAEPRYGTYDYWGQGTQVTVSS | low polyreactivity
QVQLLESGGGLVQAGGSLRLSCAASGSIFSYNAMGWYRQAPGTERELVAAITSGDSTNYADSVKGRFTISRDNAKNTVYLQMNSLKPEDTAVYYCAADPVLPAFGYVGTSLGYYWGQGTQVTVSS | low polyreactivity
QVQLVESGGGLVQAGGSLRLSCAASGITFTKYVMGWYRQAPGKERELVATIRWGASSTHYADSVKGRFRISRDNAKNTVYFQMNSLKPEDTAVYYCNADCWYGAVYWWFYGFDYWGQGTQVTVSS | low polyreactivity
QVQLVESGGGLVQAGGSLRLSCAASGRTFRFYAMGWYRQAPGKERELVAAISWNGGRTYYADSVKGRFTISRDNAKNTVYLQMNSLKPEDTAFYYCAKDRGGPFYWRYPLGYWGQGTQVTVSS | high polyreactivity
QVQLVESGGGLVQAGGSLRLSCAASGSTFQYYAMGWYRQAPGKERELVASISLSGTSTYYADSVKGRFTISRDNAKNTVYLQMNSLKPEDTAVYYCAADIVPWWASFLYDGEDYWGQGTQVTVSS | low polyreactivity
QVQLVESGGALVQAGGSLRLSSAASVSIFTINAMGWYRQAPGKERELVAAISWSGAHTYYADSVKGRFTISRDNAKNTVYVQMNSLKPEDTAVYYCATGYNYLDRNTGYVHRFDYWGQGTQVTVSS | low polyreactivity
QVQLVESGGGLVQAGGSLRLSCAASGRTFEYYAMGWYRQAPGKERELVASITSGGITNYADSVKGRFTISRDNAKNTVYLQMNSLKPEDTAVYYCNKRPWTRFDWGQGTQVTVSS | low polyreactivity
QVQLVESGGGLVQAGGSLRLSCAASGSTFLRYTMGWYRQAPGTERELVAAISPSAGSTYYADSVKGRFTISRDNAKNSVYLQMNSLTPEDTAVYYCAAKRGSVSRPDYGANDESWGQGTQVTVSS | high polyreactivity
